# According to publication PMC8400696:
# B1: S51a (S51 full length) (ssDNA)
# DNA: GGGAGACAAGAATAAACGCTCAAAGATAAAAAGGCTGTCTGAAAATTTTCGACAGGAGGCTCACAACAGGC
# B2: S11c (S11 hairpin region) (ssDNA)
# DNA: ACTGTAAAGCTCAGGACTTCGACAGG
# B3: S75a (S75 full length) (ssDNA)
# DNA: GGGAGACAAGAATAAACGCTCAACTGGTATCTATATGAAGGTTGTAGCTTCGACAGGAGGCTCACAACAGGC
# B4: S11b (S11 variable region) (ssDNA)
# DNA: GGCAACATACTGTAAAGCTCAGGAC
# B5: S11a (S11 full length) (ssDNA)
# DNA: GGGAGACAAGAATAAACGCTCAAGGCAACATACTGTAAAGCTCAGGACTTCGACAGGAGGCTCACAACAGGC
# What was measured:
# [1] = tested on: lipase; experiment: Ru(phen)2dppz fluorescence displacement; settings: no displacement up to 250 µM; aptamer given as variable region, S11b inferred; Ru displacement: 50 nM aptamer in binding solution (composition not given), excitation 434 nm, emission 610 nm; thermal assay: binding solution, 1 h ambient …
# [2] = target: MUC1 variable tandem repeat (VTR) peptide (UniProt P15941); experiment: Ru(phen)2dppz fluorescence displacement; settings: Ru dye; Ru displacement: 50 nM aptamer in binding solution (composition not given), excitation 434 nm, emission 610 nm; thermal assay: binding solution, 1 h ambient …
# MUC1 variable tandem repeat (VTR) peptide, sequence (P15941 whole entry): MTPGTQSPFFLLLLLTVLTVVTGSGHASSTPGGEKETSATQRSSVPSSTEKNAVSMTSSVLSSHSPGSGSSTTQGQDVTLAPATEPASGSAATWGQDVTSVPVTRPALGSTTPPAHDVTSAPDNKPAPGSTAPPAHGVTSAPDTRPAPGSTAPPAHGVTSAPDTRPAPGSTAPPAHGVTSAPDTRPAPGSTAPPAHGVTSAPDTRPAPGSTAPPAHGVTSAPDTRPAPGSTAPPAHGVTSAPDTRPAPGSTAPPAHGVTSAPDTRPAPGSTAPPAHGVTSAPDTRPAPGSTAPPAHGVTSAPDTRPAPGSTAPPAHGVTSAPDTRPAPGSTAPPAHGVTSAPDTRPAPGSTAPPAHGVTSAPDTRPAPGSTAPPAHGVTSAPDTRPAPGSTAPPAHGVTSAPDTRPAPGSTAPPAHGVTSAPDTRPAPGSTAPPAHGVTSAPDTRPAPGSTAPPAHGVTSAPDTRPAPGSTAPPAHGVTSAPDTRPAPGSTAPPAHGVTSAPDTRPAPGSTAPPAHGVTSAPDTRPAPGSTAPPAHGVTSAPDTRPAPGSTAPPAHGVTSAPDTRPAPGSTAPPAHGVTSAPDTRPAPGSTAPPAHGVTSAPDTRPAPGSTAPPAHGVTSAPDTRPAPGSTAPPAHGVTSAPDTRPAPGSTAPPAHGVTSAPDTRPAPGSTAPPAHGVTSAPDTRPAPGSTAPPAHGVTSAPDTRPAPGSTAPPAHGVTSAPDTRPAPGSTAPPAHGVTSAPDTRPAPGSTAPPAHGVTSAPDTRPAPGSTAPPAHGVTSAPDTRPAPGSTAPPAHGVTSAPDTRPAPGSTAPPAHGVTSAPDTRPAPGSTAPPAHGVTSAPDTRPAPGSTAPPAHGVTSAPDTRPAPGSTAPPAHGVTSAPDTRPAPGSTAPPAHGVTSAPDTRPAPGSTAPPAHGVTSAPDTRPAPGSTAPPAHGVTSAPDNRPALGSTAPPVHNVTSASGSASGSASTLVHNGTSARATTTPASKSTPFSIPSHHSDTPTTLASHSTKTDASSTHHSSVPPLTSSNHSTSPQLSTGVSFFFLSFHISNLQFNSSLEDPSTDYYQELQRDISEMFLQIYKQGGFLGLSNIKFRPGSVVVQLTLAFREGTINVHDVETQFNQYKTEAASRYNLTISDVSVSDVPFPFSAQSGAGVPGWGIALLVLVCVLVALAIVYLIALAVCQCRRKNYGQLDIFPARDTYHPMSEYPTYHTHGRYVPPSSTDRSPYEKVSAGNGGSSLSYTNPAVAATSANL
# [3] = tested on: S75 (S75a) (DNA, aptamer) GGGAGACAAGAATAAACGCTCAACTGGTATCTATATGAAGGTTGTAGCTTCGACAGGAGGCTCACAACAGGC; experiment: fluorescence titration of dye into aptamer, sigmoidal fit; settings: binding solution (composition not given); 50 nM aptamer; ex 434 nm, em 610 nm; apparent
# [4] = tested on: S11 (S11a) (DNA, aptamer) GGGAGACAAGAATAAACGCTCAAGGCAACATACTGTAAAGCTCAGGACTTCGACAGGAGGCTCACAACAGGC; experiment: as above; settings: binding solution (composition not given); 50 nM aptamer; ex 434 nm, em 610 nm; apparent
# [5] = tested on: S51 (S51a) (DNA, aptamer) GGGAGACAAGAATAAACGCTCAAAGATAAAAAGGCTGTCTGAAAATTTTCGACAGGAGGCTCACAACAGGC; experiment: as above; settings: binding solution (composition not given); 50 nM aptamer; ex 434 nm, em 610 nm; apparent
# [6] = target: T1, MUC1/Y 20mer peptide (UniProt P15941-7); experiment: Ru(phen)2dppz fluorescence displacement; 1.5 µM Ru dye; Kd only in Figure 2C; Ru displacement: 50 nM aptamer in binding solution (composition not given), excitation 434 nm, emission 610 nm; thermal assay: binding solution, 1 h ambient then SYBR Green I, 3-100 °C; cells: PBS, 4 °C, 1 h; settings: predicted hairpin (m-fold)
# T1 chain: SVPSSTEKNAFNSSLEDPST
# [7] = target: T1, MUC1/Y 20mer peptide; experiment: thermal denaturation (SYBR Green I); 1:1000 aptamer:peptide; Tm 20 and 45 to 16 °C; Ru displacement: 50 nM aptamer in binding solution (composition not given), excitation 434 nm, emission 610 nm; thermal assay: binding solution, 1 h ambient then SYBR Green I, 3-100 °C; cells: PBS, 4 °C, 1 h; settings: hairpin (m-fold)
# [8] = target: T2, MUC1/Y 10mer peptide (UniProt P15941-7); experiment: thermal denaturation (SYBR Green I); 1:1000 aptamer:peptide; Tm 20 and 45 to 26 °C; Ru displacement: 50 nM aptamer in binding solution (composition not given), excitation 434 nm, emission 610 nm; thermal assay: binding solution, 1 h ambient then SYBR Green I, 3-100 °C; cells: PBS, 4 °C, 1 h; settings: hairpin (m-fold)
# T2 chain: TEKNAFNSSL
# [9] = target: T1, MUC1/Y 20mer peptide; experiment: Ru(phen)2dppz fluorescence displacement; 2 µM Ru dye; Kd only in Figure 2C; Ru displacement: 50 nM aptamer in binding solution (composition not given), excitation 434 nm, emission 610 nm; thermal assay: binding solution, 1 h ambient then SYBR Green I, 3-100 °C; cells: PBS, 4 °C, 1 h; settings: predicted hairpin (m-fold)
# [10] = target: T1, MUC1/Y 20mer peptide; experiment: thermal denaturation (SYBR Green I); 1:1000 aptamer:peptide; Tm 21 to 16 °C; Ru displacement: 50 nM aptamer in binding solution (composition not given), excitation 434 nm, emission 610 nm; thermal assay: binding solution, 1 h ambient then SYBR Green I, 3-100 °C; cells: PBS, 4 °C, 1 h
# [11] = target: T2, MUC1/Y 10mer peptide; experiment: thermal denaturation (SYBR Green I); 1:1000 aptamer:peptide; Tm 21 to 7 and 20 °C; Ru displacement: 50 nM aptamer in binding solution (composition not given), excitation 434 nm, emission 610 nm; thermal assay: binding solution, 1 h ambient then SYBR Green I, 3-100 °C; cells: PBS, 4 °C, 1 h
# [12] = target: T2, MUC1/Y 10mer peptide; experiment: thermal denaturation (SYBR Green I); 1:1000 aptamer:peptide; Tm 35 to 43 °C; Ru displacement: 50 nM aptamer in binding solution (composition not given), excitation 434 nm, emission 610 nm; thermal assay: binding solution, 1 h ambient then SYBR Green I, 3-100 °C; cells: PBS, 4 °C, 1 h; settings: predicted hairpin (m-fold)
# [13] = target: T1, MUC1/Y 20mer peptide; experiment: thermal denaturation (SYBR Green I); 1:1000 aptamer:peptide; Tm 35 to 30 °C; Ru displacement: 50 nM aptamer in binding solution (composition not given), excitation 434 nm, emission 610 nm; thermal assay: binding solution, 1 h ambient then SYBR Green I, 3-100 °C; cells: PBS, 4 °C, 1 h; settings: predicted hairpin (m-fold)
molecule,measurement,setting,value
GGCAACATACTGTAAAGCTCAGGAC [S11b (S11 variable region)],Kd,[1],> 250000 nM
same,binding signal (fold more peptide than MUC1/Y peptide),[2],> 100
[Ru+2].c1ccc2nc3c4cccnc4c4ncccc4c3nc2c1.c1cnc2c(c1)ccc1cccnc12.c1cnc2c(c1)ccc1cccnc12,Kd,[3],240 nM
same,Kd,[4],350 nM
same,Kd,[5],440 nM
B1,binding result,[6],binds
B2,binding result,[7],binds
same,binding result,[8],binds
B3,binding result,[9],binds
B4,binding result,[10],binds
same,binding result,[11],binds
B5,binding result,[12],binds
same,binding result,[13],binds
